These results are taken from patent US20200277397A1 (Genmab, published 2020).

One may read the EC50 (read off the curve) as the concentration at which the effect is half-maximal.

Like-named read-outs stand apart in the source and are kept apart here.

For test [1], the target named is T1, full length cynomolgus monkey 5T4 (cynomolgus monkey, UniProt Q4R8Y9 35-420).
T1 construct: Uniprot Q4R8Y9; also called cynomolgus monkey 5T4 on HEK-293 cells
T1 sequence: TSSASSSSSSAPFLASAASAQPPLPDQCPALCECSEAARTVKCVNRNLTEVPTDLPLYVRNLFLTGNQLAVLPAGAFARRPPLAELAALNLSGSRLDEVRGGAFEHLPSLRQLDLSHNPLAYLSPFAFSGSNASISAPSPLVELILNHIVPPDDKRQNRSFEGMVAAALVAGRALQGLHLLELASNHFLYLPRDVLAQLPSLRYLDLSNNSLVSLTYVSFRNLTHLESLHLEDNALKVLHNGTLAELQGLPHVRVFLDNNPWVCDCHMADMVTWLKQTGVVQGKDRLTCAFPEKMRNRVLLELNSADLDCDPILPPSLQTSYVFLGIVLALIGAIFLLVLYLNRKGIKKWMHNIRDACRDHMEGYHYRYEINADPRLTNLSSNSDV
The test is described as follows: flow cytometry, HEK-293 cells transfected with cynomolgus monkey 5T4 (right panel), PE anti-human IgG F(ab')2, MFI PE.

The target of test [2] is T2, full length human 5T4 (human, UniProt Q13641 32-420).
T2 construct: Uniprot Q13641; Used here also for endogenous 5T4 on the human tumour cell lines
T2 sequence: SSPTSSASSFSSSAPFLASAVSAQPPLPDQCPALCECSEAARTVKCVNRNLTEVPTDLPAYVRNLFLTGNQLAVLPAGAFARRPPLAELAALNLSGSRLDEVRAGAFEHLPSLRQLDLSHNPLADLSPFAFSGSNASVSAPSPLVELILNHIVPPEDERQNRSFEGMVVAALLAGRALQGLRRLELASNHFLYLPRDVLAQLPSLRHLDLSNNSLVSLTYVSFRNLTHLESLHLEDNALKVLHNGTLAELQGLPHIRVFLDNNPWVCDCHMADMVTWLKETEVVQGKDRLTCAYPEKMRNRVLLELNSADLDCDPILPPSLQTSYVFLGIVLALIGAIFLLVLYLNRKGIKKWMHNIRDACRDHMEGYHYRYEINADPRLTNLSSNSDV
The test is described as follows: flow cytometry, HEK-293 cells transfected with human 5T4 (left panel), PE anti-human IgG F(ab')2, MFI PE.

The target of test [3] is T1, full length cynomolgus monkey 5T4. Briefly: flow cytometry, HEK-293 cells transfected with cynomolgus monkey 5T4 (right panel), PE anti-human IgG F(ab')2, MFI PE. The source holds these as a separate data set.
Test [4] deals with T2, full length human 5T4. The test is described as follows: flow cytometry, HeLa cells, PE anti-human IgG F(ab')2, MFI PE. On the technique in general: Flow cytometry measures light scatter and fluorescence of single cells or particles in a stream.
Test [5] addresses T1, full length cynomolgus monkey 5T4. The test is described as follows: flow cytometry, HEK-293 cells transfected with cynomolgus monkey 5T4 (right panel), PE anti-human IgG F(ab')2, MFI PE. The source holds these as a separate data set.
The target is the same in test [6]. Described as above. The source holds these as a separate data set.
Test [7] has as its target T2, full length human 5T4. Briefly: flow cytometry, HEK-293 cells transfected with human 5T4 (left panel), PE anti-human IgG F(ab')2, MFI PE. This is another data set of the same source.
Test [8] addresses T1, full length cynomolgus monkey 5T4. The test is described as follows: flow cytometry, HEK-293 cells transfected with cynomolgus monkey 5T4 (right panel), PE anti-human IgG F(ab')2, MFI PE. This is another data set of the same source.
Test [9] deals with T2, full length human 5T4. Briefly: flow cytometry, MDA-MB-231 cells, PE anti-human IgG F(ab')2, MFI PE.
Test [10] concerns the target T2, full length human 5T4. The test is described as follows: flow cytometry, HeLa cells, PE anti-human IgG F(ab')2, MFI PE. This is another data set of the same source.
In test [11] the target is T2, full length human 5T4. The description is as above. This is another data set of the same source.
The target of test [12] is T1, full length cynomolgus monkey 5T4. The test is described as follows: flow cytometry, HEK-293 cells transfected with cynomolgus monkey 5T4 (right panel), PE anti-human IgG F(ab')2, MFI PE. This is another data set of the same source.

B1: bsIgG1-huCD3-H101G-FEALx5T4-127-FEAR (bispecific antibody)
heavy 1: not shown
VL: not shown
heavy 2: EVQLLESRGGLVQPGGSLRLSCAASGFTFSSYAMSWVRQAPGKGLEWVSTISGSGGSTYYADSVKGRFTISRDNSKKTLYLQMNSLRAEDTAVYYCAKDWGSGSYPAEYFQHWGQGTLVTVSSASTKGPSVFPLAPSSKSTSGGTAALGCLVKDYFPEPVTVSWNSGALTSGVHTFPAVLQSSGLYSLSSVVTVPSSSLGTQTYICNVNHKPSNTKVDKRVEPKSCDKTHTCPPCPAPEFEGGPSVFLFPPKPKDTLMISRTPEVTCVVVAVSHEDPEVKFNWYVDGVEVHNAKTKPREEQYNSTYRVVSVLTVLHQDWLNGKEYKCKVSNKALPAPIEKTISKAKGQPREPQVYTLPPSREEMTKNQVSLTCLVKGFYPSDIAVEWESNGQPENNYKTTPPVLDSDGSFFLYSRLTVDKSRWQQGNVFSCSVMHEALHNHYTQKSLSLSPGK
light: not shown
As to B1, the “EC50 (read off the curve)” value in test [1] is about 0.1 µg/mL.

B2: bsIgG1-huCD3-H101G-FEALx5T4-085-FEAR (bispecific antibody)
heavy 1: not shown
VL: not shown
heavy 2: EVQLLESGGGLVQPGGSLRLSCAASGFTFSSYAMSWVRQAPGKGLEWVSAISGSGGSTYNADSVKGRFTIFRDNSKNTLYLHMNSLRAEDTAVYYCARDPGYNNVEYLDHWGQGTLVTVSSASTKGPSVFPLAPSSKSTSGGTAALGCLVKDYFPEPVTVSWNSGALTSGVHTFPAVLQSSGLYSLSSVVTVPSSSLGTQTYICNVNHKPSNTKVDKRVEPKSCDKTHTCPPCPAPEFEGGPSVFLFPPKPKDTLMISRTPEVTCVVVAVSHEDPEVKFNWYVDGVEVHNAKTKPREEQYNSTYRVVSVLTVLHQDWLNGKEYKCKVSNKALPAPIEKTISKAKGQPREPQVYTLPPSREEMTKNQVSLTCLVKGFYPSDIAVEWESNGQPENNYKTTPPVLDSDGSFFLYSRLTVDKSRWQQGNVFSCSVMHEALHNHYTQKSLSLSPGK
light: not shown
As for B2, the entries for the 50% effective concentration (EC50 (read off the curve)) (in the test with full length human 5T4 [2]; in test [3]) were about 0.5 µg/mL and about 0.4 µg/mL, respectively.

B3: bsIgG1-huCD3-H101G-FEALx5T4-A3-FEAR (bispecific antibody)
heavy 1: not shown
VL 1: not shown
heavy 2: EVQLVESGGGLVQPKGSLKLSCAASGFTFNTYAMNWVRQAPGKGLEWVARIRSKSNNYATYYADSVKDRFTISRDDSQSMLYLQMNNLKTEDTAMYYCVRQWDYDVRAMNYWGQGTSVTVSSASTKGPSVFPLAPSSKSTSGGTAALGCLVKDYFPEPVTVSWNSGALTSGVHTFPAVLQSSGLYSLSSVVTVPSSSLGTQTYICNVNHKPSNTKVDKRVEPKSCDKTHTCPPCPAPEFEGGPSVFLFPPKPKDTLMISRTPEVTCVVVAVSHEDPEVKFNWYVDGVEVHNAKTKPREEQYNSTYRVVSVLTVLHQDWLNGKEYKCKVSNKALPAPIEKTISKAKGQPREPQVYTLPPSREEMTKNQVSLTCLVKGFYPSDIAVEWESNGQPENNYKTTPPVLDSDGSFFLYSRLTVDKSRWQQGNVFSCSVMHEALHNHYTQKSLSLSPGK
VL 2: DIVMTQSHIFMSTSVGDRVSITCKASQDVDTAVAWYQQKPGQSPKLLIYWASTRLTGVPDRFTGSGSGTDFTLTISNVQSEDLADYFCQQYSSYPYTFGGGTKLEIK
Take B3: the binding result (with full length human 5T4 [4]; in test [5]) was “binds” in each case.

B4: bsIgG1-huCD3-H101G-FEALx5T4-076-FEAR (bispecific antibody)
heavy 1: not shown
VL: not shown
heavy 2: QVQLVQSGAEVKKPGASVKVSCKASGYTFTSYGISWVRQAPGQGLEWMGWISAYNGNTNYAQKLQGRVTMTTDTSTRTAYMELRSLRSDDTAVYYCARDPGYFDWLYGDYWGQGTLVTVSSASTKGPSVFPLAPSSKSTSGGTAALGCLVKDYFPEPVTVSWNSGALTSGVHTFPAVLQSSGLYSLSSVVTVPSSSLGTQTYICNVNHKPSNTKVDKRVEPKSCDKTHTCPPCPAPEFEGGPSVFLFPPKPKDTLMISRTPEVTCVVVAVSHEDPEVKFNWYVDGVEVHNAKTKPREEQYNSTYRVVSVLTVLHQDWLNGKEYKCKVSNKALPAPIEKTISKAKGQPREPQVYTLPPSREEMTKNQVSLTCLVKGFYPSDIAVEWESNGQPENNYKTTPPVLDSDGSFFLYSRLTVDKSRWQQGNVFSCSVMHEALHNHYTQKSLSLSPGK
light: not shown
As to B4, the concentration giving a half-maximal response (EC50 (read off the curve)) in [6] is about 0.4 µg/mL. Moreover, the binding result in the test with full length human 5T4 [7] is on record as “binds”.

B5: bsIgG1-huCD3-H101G-FEALx5T4-106-FEAR (bispecific antibody)
heavy 1: not shown
VL: not shown
heavy 2: EVQLVQSGAEVKKPGESLKISCKGSGYRFTSYWIGWVRQMPGKGLEWMGIIYPGDSDARYSPSFQGQVTISADKSISTAYLQWSSLKASDTGMYYCARSVLFDYWGQGTLVTVSSASTKGPSVFPLAPSSKSTSGGTAALGCLVKDYFPEPVTVSWNSGALTSGVHTFPAVLQSSGLYSLSSVVTVPSSSLGTQTYICNVNHKPSNTKVDKRVEPKSCDKTHTCPPCPAPEFEGGPSVFLFPPKPKDTLMISRTPEVTCVVVAVSHEDPEVKFNWYVDGVEVHNAKTKPREEQYNSTYRVVSVLTVLHQDWLNGKEYKCKVSNKALPAPIEKTISKAKGQPREPQVYTLPPSREEMTKNQVSLTCLVKGFYPSDIAVEWESNGQPENNYKTTPPVLDSDGSFFLYSRLTVDKSRWQQGNVFSCSVMHEALHNHYTQKSLSLSPGK
light: AIQLTQSPSSLSASVGDRVTITCRASQGISSALAWYQQKPGKAPKLLIYDVSNLESGVPSRFSGSGSGTDFTLTISSLQPEDFATYYCQQFNSYPHTFGQGTKLEIKRTVAAPSVFIFPPSDEQLKSGTASVVCLLNNFYPREAKVQWKVDNALQSGNSQESVTEQDSKDSTYSLSSTLTLSKADYEKHKVYACEVTHQGLSSPVTKSFNRGEC
In the case of B5, in test [8], the binding result is given as “binds”. Also, the concentration giving a half-maximal response (EC50 (read off the curve)) in the test with full length human 5T4 [9] and with full length human 5T4 [10] was about 0.1 µg/mL in each case.

B6: bsIgG1-huCD3-H101G-FEALx5T4-A1-FEAR (bispecific antibody)
heavy 1: not shown
VL 1: not shown
heavy 2: QIQLVQSGPELKKPGETVKISCKASGYTFTNFGMNWVKQGPGEGLKWMGWINTNTGEPRYAEEFKGRFAFSLETTASTAYLQINNLKNEDTATYFCARDWDGAYFFDYWGQGTTLTVSSASTKGPSVFPLAPSSKSTSGGTAALGCLVKDYFPEPVTVSWNSGALTSGVHTFPAVLQSSGLYSLSSVVTVPSSSLGTQTYICNVNHKPSNTKVDKRVEPKSCDKTHTCPPCPAPEFEGGPSVFLFPPKPKDTLMISRTPEVTCVVVAVSHEDPEVKFNWYVDGVEVHNAKTKPREEQYNSTYRVVSVLTVLHQDWLNGKEYKCKVSNKALPAPIEKTISKAKGQPREPQVYTLPPSREEMTKNQVSLTCLVKGFYPSDIAVEWESNGQPENNYKTTPPVLDSDGSFFLYSRLTVDKSRWQQGNVFSCSVMHEALHNHYTQKSLSLSPGK
VL 2: SIVMTQTPKFLLVSAGDRVTITCKASQSVSNDVAWYQQKPGQSPKLLINFATNRYTGVPNRFTGSGYGTDFTFTISTVQAEDLALYFCQQDYSSPWTFGGGTKLEIK
As for B6, the binding result (in the test with full length human 5T4 [11]; in [12]) was “binds” throughout.
